Results taken from paper PMC7824274, “Separation of Coiled-Coil Structures in Lamin A/C Is Required for the Elongation of the Filament” (Cells, 2020).

T1: His-tagged lamin A/C 1-300 fragment, Y45C (human), P02545
T1 chain: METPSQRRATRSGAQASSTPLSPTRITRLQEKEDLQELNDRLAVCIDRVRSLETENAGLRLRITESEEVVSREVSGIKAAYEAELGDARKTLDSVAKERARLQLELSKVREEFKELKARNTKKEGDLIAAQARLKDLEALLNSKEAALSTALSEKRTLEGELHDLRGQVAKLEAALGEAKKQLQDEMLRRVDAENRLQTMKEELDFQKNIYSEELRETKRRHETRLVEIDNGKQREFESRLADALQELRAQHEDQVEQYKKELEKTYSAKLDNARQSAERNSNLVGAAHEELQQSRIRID

B1: lamin A/C 250-400 fragment, wild type, tag-free (domain or fragment, human, UniProt P02545 250-400, looked up)
chain: AQHEDQVEQYKKELEKTYSAKLDNARQSAERNSNLVGAAHEELQQSRIRIDSLSAQLSQLQKQLAAKEAKLRDLEDSLARERDTSRRLLAEKEREMAEMRARMQQQLDEYQELLDIKLALDMEIHAYRKLLEGEEERLRLSPSPTSQRSRG
notes: lamin A/C, human, residues 250-400 (C-terminal part of coil 2); His-tag cleaved with TEV protease; also called lamin 250-400; coil 2 fragment; source: E. coli BL21 (DE3), purified (cobalt-Talon, TEV cleavage, HiTrap Q, SEC); not shown: His-tag, N-terminal, cleaved
B2: His-tagged lamin A/C 1-300 fragment, wild type (domain or fragment, human, UniProt P02545 1-300, looked up)
chain: METPSQRRATRSGAQASSTPLSPTRITRLQEKEDLQELNDRLAVYIDRVRSLETENAGLRLRITESEEVVSREVSGIKAAYEAELGDARKTLDSVAKERARLQLELSKVREEFKELKARNTKKEGDLIAAQARLKDLEALLNSKEAALSTALSEKRTLEGELHDLRGQVAKLEAALGEAKKQLQDEMLRRVDAENRLQTMKEELDFQKNIYSEELRETKRRHETRLVEIDNGKQREFESRLADALQELRAQHEDQVEQYKKELEKTYSAKLDNARQSAERNSNLVGAAHEELQQSRIRID
notes: lamin A/C, human, residues 1-300 (N-terminal head, coil 1a, L1, coil 1b and following residues); pProEx-HTa vector: a TEV protease cleavage site stands between the His-tag and the lamin residues; also called lamin 300 fragment; His-lamin 1-300 WT; source: E. coli BL21 (DE3), purified (cobalt-Talon, HiTrap Q, SEC); not shown: His-tag, N-terminal, kept
B3: His-tagged lamin A/C 1-300 fragment, L59R (domain or fragment, human, UniProt P02545 1-300, looked up)
chain: METPSQRRATRSGAQASSTPLSPTRITRLQEKEDLQELNDRLAVYIDRVRSLETENAGRRLRITESEEVVSREVSGIKAAYEAELGDARKTLDSVAKERARLQLELSKVREEFKELKARNTKKEGDLIAAQARLKDLEALLNSKEAALSTALSEKRTLEGELHDLRGQVAKLEAALGEAKKQLQDEMLRRVDAENRLQTMKEELDFQKNIYSEELRETKRRHETRLVEIDNGKQREFESRLADALQELRAQHEDQVEQYKKELEKTYSAKLDNARQSAERNSNLVGAAHEELQQSRIRID
notes: lamin A/C, human, residues 1-300 with the CDM1A mutation L59R; pProEx-HTa vector: a TEV protease cleavage site stands between the His-tag and the lamin residues; also called His-lamin 1-300 L59R; lamin 300 L59R; source: E. coli BL21 (DE3), purified (cobalt-Talon, HiTrap Q, SEC); not shown: His-tag, N-terminal, kept
B4: His-tagged lamin A/C 1-300 fragment, I63S (domain or fragment, human, UniProt P02545 1-300, looked up)
chain: METPSQRRATRSGAQASSTPLSPTRITRLQEKEDLQELNDRLAVYIDRVRSLETENAGLRLRSTESEEVVSREVSGIKAAYEAELGDARKTLDSVAKERARLQLELSKVREEFKELKARNTKKEGDLIAAQARLKDLEALLNSKEAALSTALSEKRTLEGELHDLRGQVAKLEAALGEAKKQLQDEMLRRVDAENRLQTMKEELDFQKNIYSEELRETKRRHETRLVEIDNGKQREFESRLADALQELRAQHEDQVEQYKKELEKTYSAKLDNARQSAERNSNLVGAAHEELQQSRIRID
notes: lamin A/C, human, residues 1-300 with the EDMD mutation I63S; pProEx-HTa vector: a TEV protease cleavage site stands between the His-tag and the lamin residues; also called His-lamin 1-300 I63S; lamin 300 I63S; source: E. coli BL21 (DE3), purified (cobalt-Talon, HiTrap Q, SEC); not shown: His-tag, N-terminal, kept
B5: His-tagged lamin A/C 1-300 fragment, L35V (domain or fragment, human, UniProt P02545 1-300, looked up)
chain: METPSQRRATRSGAQASSTPLSPTRITRLQEKEDVQELNDRLAVYIDRVRSLETENAGLRLRITESEEVVSREVSGIKAAYEAELGDARKTLDSVAKERARLQLELSKVREEFKELKARNTKKEGDLIAAQARLKDLEALLNSKEAALSTALSEKRTLEGELHDLRGQVAKLEAALGEAKKQLQDEMLRRVDAENRLQTMKEELDFQKNIYSEELRETKRRHETRLVEIDNGKQREFESRLADALQELRAQHEDQVEQYKKELEKTYSAKLDNARQSAERNSNLVGAAHEELQQSRIRID
notes: lamin A/C, human, residues 1-300 with the EDMD mutation L35V; pProEx-HTa vector: a TEV protease cleavage site stands between the His-tag and the lamin residues; also called His-lamin 1-300 L35V; lamin 300 L35V; source: E. coli BL21 (DE3), purified (cobalt-Talon, HiTrap Q, SEC); not shown: His-tag, N-terminal, kept

How the values were obtained:
[1] = target: T1, His-tagged lamin A/C 1-300 fragment, …; assay: ITC; His-tagged lamin 300 fragments in the cell (25 uM), TEV-cleaved lamin 250-400 in the syringe (180 uM); PBS; 25 °C; 19 injections of 2 uL; settings: remark: other sources report otherwise
[2] = target: B2; assay: pull-down; His-tagged lamin 1-300 variants on Ni-NTA resin as bait, tag-free lamin 250-400 as prey; 20 mM Tris-HCl pH 8.0 with 50 mM or 150 mM NaCl; room temperature 30 min; SDS-PAGE; settings: both partners purified
[3] = target: B4; assay: ITC; His-tagged lamin 300 fragments in the cell (25 uM), TEV-cleaved lamin 250-400 in the syringe (180 uM); PBS; 25 °C; 19 injections of 2 uL; settings: both partners purified
[4] = target: B3; assay: as above; settings: both partners purified
[5] = target: B5; assay: as above; settings: both partners purified
[6] = target: B1; assay: pull-down; His-tagged lamin 1-125 variants on Ni-NTA resin as bait, lamin 250-400 as prey; 20 mM Tris-HCl pH 8.0 with 50 mM NaCl; SDS-PAGE; settings: both partners purified
[7] = target: the molecule itself; assay: not stated; purified lamin 300 fragments in solution; how the dimeric state was found is not told

Row | binding result [6] | Binder | stoichiometry N [7] | further results
1 | – | B1 | – | fold decrease of the interaction (KD) against wild type [1]: 5 fold; binding result [2]: binds; fold increase of the interaction (KD) against wild type [3]: ~2 fold; fold increase of the interaction (KD) against wild type [4]: ~56 fold; fold decrease of the interaction (KD) against wild type [5]: ~2 fold
2 | binds | His-tagged lamin A/C 1-125 fragment, L59R (domain or fragment, human, UniProt P02545 1-125, looked up, pProEx-HTa vector: a TEV protease cleavage site stands between the His-tag and the lamin residues; also called His-lamin 1-125 L59R; source: E. coli BL21 (DE3), purified (cobalt-Talon, HiTrap Q, SEC); not shown: His-tag, N-terminal, kept) METPSQRRATRSGAQASSTPLSPTRITRLQEKEDLQELNDRLAVYIDRVRSLETENAGRRLRITESEEVVSREVSGIKAAYEAELGDARKTLDSVAKERARLQLELSKVREEFKELKARNTKKEG | – | –
3 | binds | His-tagged lamin A/C 1-125 fragment, I63S (domain or fragment, human, UniProt P02545 1-125, looked up, pProEx-HTa vector: a TEV protease cleavage site stands between the His-tag and the lamin residues; source: E. coli BL21 (DE3), purified (cobalt-Talon, HiTrap Q, SEC); not shown: His-tag, N-terminal, kept) METPSQRRATRSGAQASSTPLSPTRITRLQEKEDLQELNDRLAVYIDRVRSLETENAGLRLRSTESEEVVSREVSGIKAAYEAELGDARKTLDSVAKERARLQLELSKVREEFKELKARNTKKEG | – | –
4 | binds | His-tagged lamin A/C 1-125 fragment, Y45C (domain or fragment, human, UniProt P02545 1-125, looked up, pProEx-HTa vector: a TEV protease cleavage site stands between the His-tag and the lamin residues; source: E. coli BL21 (DE3), purified (cobalt-Talon, HiTrap Q, SEC); not shown: His-tag, N-terminal, kept) METPSQRRATRSGAQASSTPLSPTRITRLQEKEDLQELNDRLAVCIDRVRSLETENAGLRLRITESEEVVSREVSGIKAAYEAELGDARKTLDSVAKERARLQLELSKVREEFKELKARNTKKEG | – | –
5 | – | B2 | 2 | –
6 | – | His-tagged lamin A/C 1-300 fragment, Y45C (domain or fragment, human, UniProt P02545 1-300, looked up, lamin A/C, human, residues 1-300 with the EDMD mutation Y45C; pProEx-HTa vector: a TEV protease cleavage site stands between the His-tag and the lamin residues; also called His-lamin 1-300 Y45C; lamin 300 Y45C; source: E. coli BL21 (DE3), purified (cobalt-Talon, HiTrap Q, SEC); not shown: His-tag, N-terminal, kept) METPSQRRATRSGAQASSTPLSPTRITRLQEKEDLQELNDRLAVCIDRVRSLETENAGLRLRITESEEVVSREVSGIKAAYEAELGDARKTLDSVAKERARLQLELSKVREEFKELKARNTKKEGDLIAAQARLKDLEALLNSKEAALSTALSEKRTLEGELHDLRGQVAKLEAALGEAKKQLQDEMLRRVDAENRLQTMKEELDFQKNIYSEELRETKRRHETRLVEIDNGKQREFESRLADALQELRAQHEDQVEQYKKELEKTYSAKLDNARQSAERNSNLVGAAHEELQQSRIRID | 2 | –
7 | – | B3 | 2 | –
8 | – | B4 | 2 | –
9 | – | B5 | 2 | –
